Results on 41 sequences are retold here after the nanobody polyreactivity screen of Harvey et al. (2022).

The nature of this data set: yeast display, Sf9 membrane polyspecificity reagent, FACS + sequencing; frameworks hold sequencing errors. Summed up: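 Synthetic nanobody libraries on Saccharomyces cerevisiae BJ5465 were galactose-induced for 36–48 hours, stained 1 hour at 4 °C with 10% biotinylated, detergent-solubilized Sf9 membrane reagent and enriched on streptavidin microbeads. FACS then separated cells into low and high (top ~1%) gates by anti-HA (expression) and streptavidin (reagent binding) fluorescence. Genes were colony-PCR amplified, MiSeq 2 × 250 sequenced and CDR-length filtered. A clone's polyreactivity label is that of its gate of origin.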
Consider “QVQLVESGGGLVQAGGSLRLICAASGSIFDFYAMGWYRQAPGKERELVAAISRNGGSTYYADSVKGRFTISRDNAKNTFYLQMNSLKPEDTAVYYCNKTVYVGAKEYDYWGQGTQVTVSS”, for which the “polyreactivity (PSR sort gate)” value is “high polyreactivity”.
The same measure for “QVQLVESGGGLVQAGGSLRLSCAASGFIFTPYTMGWYRQAPGKERELVAAITDGSSTYYADSVKGRFTISRDNAKNTVYLQMNSLKPEDTAVYYCNADGKPPYISWLYDYWGQGTQVTVSS”: “low polyreactivity”; for “QVQLVESGGGLVQAGGSLRLSCAASGSIFPRNAMGWYRQAPGKERELVARINSGGTTKYADSVKGRFTISRDNAKYTVFLQMNSLKPEDTAGYYCNADTYILDPLRKSYGYDYWGQGTQVTVSS”: “low polyreactivity”.
The same measure for “QDQLVESVGGLVQAGGSLRLSCAASGSTFTSNAMGWYRQAPGKERELVAVITIGGSTNYADSVKGRFTISLDNAKNSVYLQMNSLKPEDTAVYYCAAELFPLQHFWGAYATRRYDYWGQGTQVTVSS”: “low polyreactivity”; for “QVQLVESGGGLVQAGGSLRLSCAASGRIFYYYAMGWYRQAPATERELFAGINSGGNTYADSVKGRFTISRDNAKNTVYLQMNSLKPEDTAVYYCATDFYSYAGGYYHHDHWGQGTQVTVSS”: “high polyreactivity”; for “QVQLVESGGGLVQAGGSLRLSCAASGSIFFSNTMGWYRQAPGKERELVARITWSGTSTNYADSVKGRFTISRDNAKNTVYLQMNSLKPEDTAVYYCNAGFYTSAGYDYWGQGTQVTVSS”: “high polyreactivity”.
As to “QVQLVESGGGLVQAGGSLRLSCAASGSIFRWNAMGWYRQAPGKERELVAAITWRSSSTYYADSVKGRFTISRDNAKNTVYLQMNSLKPEDTAVYYCNAKRGVQTYANFYGSKYDYWGQGTQVTVSS”, the “polyreactivity (PSR sort gate)” value was “high polyreactivity”.
The value for “QVQLVESGGGLVQAGGSLRLSCAASGRIFGKYAMGWYRQAPGKERELVAAISVRGGRTFYADSVKGRFTISRDNAKNTVYLQMNSLKPEVTAVYYCAARGADKGSYADVDYWGQGTQVTVSS” was “low polyreactivity”; that for “QVQLVESGGGLVQAGGSLRLSCAASGFIFDVYAMGWYRQAPGKERELVAAITSGDGTNYADSVKGRFTISRDNAKNTVYLQMNSLKPEDTAVYYCAADYGVTYRGIIFSYWGQGTQVTVSS” was “low polyreactivity”.
For “QVQLVESGGGLVQAGGSLRLSCAASGRTFKPYAMGWYRQAPGKERELVAVISSTGSTKYADSVKGRFTISRDNAKNTVYLQMNSLKPEDTAVYYCAAQNTYIYYWGQGTQVTVSS”, the “polyreactivity (PSR sort gate)” value is recorded as “high polyreactivity”.
“QVQHVESGGGLVQAGGSLRLSCAASGRTFRWYAMGWYRHAPGKERELVAGISRGGGSTTYADSVKGRFTISRDYAKNTVYLQMNSLKPEDTAVYYCAAYWGRTRYYGYDYYYWGQGTQLTVSS”: the “polyreactivity (PSR sort gate)” value is “high polyreactivity”.
The same measure for “QVQLVESGGGLVQAGGSLRLSCAASGYTFVWYAMGWYRQAPGKERELVAAISASGGSTYYADSVKGRFTISRDNAKNTVYLQMNSLKPEDTAVYYCNAVGALSVYGGNGYWGQGTQVTVSS”: “high polyreactivity”; for “QVQLVESGGGLVQAGGSLRLSCAASGITFSRYGMGWYRQAPGKERELVAVISWRGGRTYYADSVKGRFTISRYNAKNTVYLHMNSLKPEDTAVYYCAADSRQSVYDYDYWGQGTQVTVSS”: “high polyreactivity”; for “QVQLVESGGGLVQAGGSLRLSCAASGSTRIYAMGWYRQAPGKERELVAAISWTGGRTYYADSVKGRFTISRDNAKNTVYLQMNSLKPEDTAVYYCAAKGSGRDYWGQGTQVTVSS”: “high polyreactivity”.
The value for “QVQLVESGGGLVQAGGSLRLSCAASGSILSYYVMGWYRQAPGKERELVAAITSDGSTNYADSVKGRFTISRDNAKNTVYLQMNSQKPEDTAVYYCAAVIAWYYGVQDVYYLGLYDYWGQGTQVTVSS” was “low polyreactivity”; that for “QVQLVESGGGLVQAGGSLRIICPASGNTFAYYAMGWYRQAPGKEREFVAAISGSGGRTYYADSVKGRFTISRDNAKNTVYLQMNILKPEDTAVYYCNARPAGGQGYGYWGQGTQVTVSS” was “high polyreactivity”; that for “QVQLVESVGGLVQAGGSLRLSCAASGFIFTLYTMGWYRHAPGKERELVADIDKNGSTYYADSVKGRFTISRDNAKITVYLRMYSLKPEDTAFYYCAADDRYRGNREDYWGQGTQVTVSS” was “low polyreactivity”.
The value for “QVQLVESGGGLVQAGGSLRLSSAASGFTFPWYAMGWYSQAPGKEREVVAVISSSGGSTYYADSVKGRFTISRDNAKNTVYLQMNSLKPEDTAVYYCARAYGGRGYDIRYDYWGKGTQVTVSS” was “high polyreactivity”; that for “QVQLQESAGGRQPAPELRGERLYFWLLLMGWYRQAPGEERELVAGINDGASTNYADSVKGRFTISRDNARNTVYLKMNSLKPGDTAVYYCAVWQPVLIWFYYWGQGTQVTVSS” was “high polyreactivity”; that for “QVQLVESGGGLVQAGGSLRLSCAASGSTFGDNAMGSYRQAPGKERELVAAISSGGGSTYYADSVKGRFTISRDNAKNTVYLQMNSLKPEDTAVYYCAADVTLTLYRYILDYWGQGTQVTVSS” was “low polyreactivity”.
In the case of “QVQLVESGGGLFQAGGSLRLSCAASGFIFSHYAMGWYRQAPGNDREFVATISKRGGSTTYADSVKGRFTISRDNAKNTVYFQMNSLKPVDTAVYDFAADYYPASAGFDYWGQGTQVTVSS”, the “polyreactivity (PSR sort gate)” value is reported as “high polyreactivity”.
Regarding “QVQLVESGGGLVQAGGSLRLSCAASGRIFPGYVMGWYRQAHGKERELVAAITRGGSTYYADSVKGRFTISRDNAKNTVYLQMNSLKPEDTAVYYCAAKHSHIHYNYWGQGTQVTVSS”, the “polyreactivity (PSR sort gate)” value is “low polyreactivity”.
Take “QVQLVESVGGLVQAGGSLRLSCAASGSIFAVNAMGWYRKAPGTERELVAAITSSGVDTYYADSVKGRFTISRDNAKNTVYLQMNSLKPEDTAVYYCAADDQLNWYDYWGQGTQVTVSS”: the “polyreactivity (PSR sort gate)” value was “low polyreactivity”.
The same measure for “QVQLVESGGGLVQAGGSLRLSCAASGITFTYYAMGWYRQAPGKERELVDAITDRGGRTYYSDSVKGRFTISRDNAKNTVYIQMNSLKPEDTAVYYCAAYVPQGYKLYYWGQGTQVTVSS”: “high polyreactivity”; for “QVQLVESGVGLVQAGGSLRLSCASSGRTFTPNGMGWYRQAPGKERELVAAITYGGGITDYADSVKGRFTISRDNAKNTVYLQMNRLNPEDTAVYYCAATTLSFEGGKYWSKYDYWGQGTQVTVSS”: “low polyreactivity”.
The same measure for “QVQLVESGGGLVQAGGSLRLSCAASGFSFFKYAMGWYRQAPGKERELVAAISSSGGSTYYADSVKGRFTISRDNAKKTVYLQMNSLKPEDTAVYYCAVDNLKCRAQSLDGFDYWGQGTQVTVSS”: “high polyreactivity”; for “QVQLVESGGGLVQAGGSLRLSCAASGIILVQYVMGWYRQAPGKERELVASISRTGGSTYYADSVKGRFTISRDNAKNTVYLQMNSLKPEDTAVYYCAALAYRYSYPRGYWGQGTQVTVSS”: “high polyreactivity”; for “QVQLVESGGGIVQAGGSLRLSCAASGGIFFIYTMGWYRQAPGKERELVAAITSTGDTNYADSVKGRFTISRDNAKNTVYLQMNSLKPEDTAVYYCNKDYGTRGKGYDYWGQGTQVTVSS”: “low polyreactivity”.
The same measure for “QVQLVESGVGLVQAGGSLRLSCAASGLTFATNAMGWYRQAPGKERELVAAITGSGGSTNYADSVKGRFTISRDNAKNTVYLQMNSLKPEDTAVYYCAADLLWEPSRGYRGDYWGQGTQVTVSS”: “low polyreactivity”; for “QVQLVESGGGLVQAGGSLRLSCAASGSTSGKYGMGWYRQAPGKVRELVAGITKGGGGTYYADSVKGRFTISRDNAKNTVYLQMHSLKPEDTAVYYCAKYYGSGYYIYDYWGQGTQVTVSS”: “low polyreactivity”; for “QVHLVESGGGLVQAGGSLRLSCAASVRTYRGNAMGWYRQAPGKEREMVAAITYRTGSTYYADSVKGRFTISRDNAKNTVYLLMNSLKPEDTAVYYCAAVSGRSYDKYYYWGQGTQVTVSS”: “high polyreactivity”.
Regarding “QVQLVESGGGLVQAGGSLRLSCAASVRIFEVYAMGWYRQAPGKERELVAAISSGGGSTYYADSVKGRFTISRDNAKNTVFLQMISLKPEDTAVYYCAADEVTKKNSFPRIMDYWGQGTQVTVSS”, the “polyreactivity (PSR sort gate)” value is given as “high polyreactivity”.
The same measure for “QVQLVESGGGLVQAGGSLRLSCAASGRIFLWYAMGWYRQAPGKERELVAAISSGGSTKYADSVKGRFTISRDNAKNTVYLQMNSLKPEDTAVYYCAATRKYSYVTYYYWGQGTQVTVSS”: “high polyreactivity”; for “QVQLVESGGGLVQAGGSLRLSCAASGFTFTYNAMGWYRQAPGKERELVAAITLSGGSTYADSVKGRFTISRDNAKNTVYLQMNSLKPEDTAVYYCNADAGVYSANATDGYDYWGQGTQVTVSS”: “low polyreactivity”; for “QVQLVESGGGLVQAGGSLRLSCAASGSIFDFYSMGWYRQAPGKERELVAAISRGGSTYYADSVKGRFTISRDNAKNTVYFLMNSLKPEDTGVDYCAARDGVLVSWLWFWCDSPYGYWGQGTQGTVSS”: “low polyreactivity”.
The value for “QVQLVESGGGLVQAGGSLRLSCAASGRTFRGYVMGWYRQAPGKERELVASISYSGGSTYYADSVKGRFTISRDNAKNTVYLQMNSLKPEDTAVYYCAARKGYDQYRWRYSQNNYWGQGTQVTVSS” was “high polyreactivity”; that for “QVQLVESGGGLVQAGGSLRLSCAASGSTINYNAMGWYRQAPGKERELVAAIDSGVSTNYADSVKGRFTITRDNAKNTVYLQMNSLKPEDTAVYYCNADPDYFDYWGQGTQVTVSS” was “low polyreactivity”.
The same measure for “QVKLVESGGGLVQAGGSLRLSCAASGRIFGYNAMGWYRQAPGKERELVAAISRSGGTTYYADSVKGRFTISRDNSKNTVNLQMNRLKPEDTEVYYCAAYYRTRVPYDMDYWGQGTQVTVSS”: “high polyreactivity”; for “QVQLVETGGGLVQAGGSLRLSCAASGRIFYYNAMGWYRQAPGKERELVAAITGSGGSTYYADSVKGRFTISRDNEMNTVYLQMNSLKPEDSAVYYCAAVNPYIRGRYDYWGQGTQVTVSS”: “high polyreactivity”.
On to “QVQLVESGGGLVKAGCSLRLTCAASARTFRWYAMGWYRQAPGKERELVATISWSSGRTRYADSVKGRFTISRDNANNTVYLQMNSLKPEETAVYYCNADQWDKSYDYWGQGSQVTVSS”, for which the “polyreactivity (PSR sort gate)” value is “high polyreactivity”.
The same measure for “QVQLVESGGGLVQAGGRLRLSCAASGFIFWTYAMGWYRQAPGKERELVARISWSGGSTYYADSVKGRFTISRDTAKNTVYLQMNSLKPEDTAVYYCARLATLYESIEYDYWGQGTQVTVSS”: “low polyreactivity”.
